Data from patent US20170342155A1 (Amgen, published 2017).

Target: T1, wild-type human CCR7 (pcDNA3.1 Neo-hCCR7, 20100121357) (human, UniProt P32248 25-378)
T1 construct: Expressed on transfected 293T, CHO AM1/D or HEK293T cells; also called huCCR7; CCR7 receptor
T1 sequence: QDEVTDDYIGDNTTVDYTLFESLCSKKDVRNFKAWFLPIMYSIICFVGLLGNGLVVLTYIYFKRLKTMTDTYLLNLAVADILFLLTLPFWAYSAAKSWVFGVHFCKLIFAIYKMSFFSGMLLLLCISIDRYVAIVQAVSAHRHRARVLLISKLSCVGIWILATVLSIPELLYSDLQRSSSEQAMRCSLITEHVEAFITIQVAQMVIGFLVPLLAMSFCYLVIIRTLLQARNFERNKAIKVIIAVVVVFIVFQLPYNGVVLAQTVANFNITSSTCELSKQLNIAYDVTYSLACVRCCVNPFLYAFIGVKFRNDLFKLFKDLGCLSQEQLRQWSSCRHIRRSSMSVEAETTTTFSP
Experiment: hybridoma screening on cells expressing human CCR7

binding result: binds
B1: antibody 6E1.2 (antibody, human IgG2, lambda, V domains shown)
VH: QGQLVESGGGVVQPGRSLRLSCAASGFTFRSYGMHWVRQAPGKGLEWVAVIWYDGSKKYYADSVKGRFTISRDNSKNTLFLQMNSLRAEDTAVYYCARDGGIAAFLQDNWFDPWGQGTLVTVSS
VL: SYELTQPPSVSVSPGQTASITCSGNKLGDKYASWYHQKPGQSPVLVIYQDNKRPSGIPERFSGSNSGNTATLTISGTQTMDEADYFCQAWDRTVVFGGGTKLTVLG
notes: Human antibody from XenoMouse hybridoma; Light = 26 and heavy = 58 is inferred from the order of the listing
